{
  "source": "patent US20090099029A1",
  "about": "“Methods and substrates for conducting assays” (Invitrogen Corporation, priority 2005, published 2009)",
  "test_system": "kinases of Table 6 on Myelin Basic Protein (MBP)",
  "test": "Kinase assay using MBP substrate, ProQ Diamond stain (Table 6)",
  "format": "biochemical",
  "details": "kinase printed on MBP-coated slide; 20 uM ATP, 30° C.; ProQ Diamond Microarray Stain; graded Strong/Weak/Negative",
  "in_short": "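Bovine dephosphorylated MBP coated on aldehyde- or epoxy-glass slides, kinases printed on top; reaction buffer pH 7.5 with 4 mM MgCl2, 20 uM ATP, 5% DMSO, ± inhibitor, at 30° C. Phosphorylation detected by ProQ Diamond stain, 30 min in dark.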",
  "data": [
    {"molecule": "KIT (protein, left off: small tags and cut ends) TYKYLQKPMYEVQWKVVEEINGNNYVYIDPTQLPYDHKWEFPRNRLSFGKTLGAGAFGKVVEATAYGLIKSDAAMTVAVKMLKPSAHLTEREALMSELKVLSYLGNHMNIVNLLGACTIGGPTLVITEYCCYGDLLNFLRRKRDSFICSKQEDHAEAALYKNLLHSKESSCSDSTNEYMDMKPGVSYVVPTKADKRRSVRIGSYIERDVTPAIMEDDELALDLEDLLSFSYQVAKGMAFLASKNCIHRDLAARNILLTHGRITKICDFGLARDIKNDSNYVVKGNARLPVKWMAPESIFNCVYTFESDVWSYGIFLWELFSLGSSPYPGMPVDSKFYKMIKEGFRMLSPEHAPAEMYDIMKTCWDADPLKRPTFKQIVQLIEKQISESTNHIYSNLANCSPNRQKPVVDHSVRINSVGSTASSSQPLLVHDDV", "values": [
      {"measurement": "MBP Kinase Activity", "value": "Negative"}
    ]},
    {"molecule": "MERTK (protein, left off: a dimerising Fc or GST) KRVQETKFGNAFTEEDSELVVNYIAKKSFCRRAIELTLHSLGVSEELQNKLEDVVIDRNLLILGKILGEGEFGSVMEGNLKQEDGTSLKVAVKTMKLDNSSQREIEEFLSEAACMKDFSHPNVIRLLGVCIEMSSQGIPKPMVILPFMKYGDLHTYLLYSRLETGPKHIPLQTLLKFMVDIALGMEYLSNRNFLHRDLAARNCMLRDDMTVCVADFGLSKKIYSGDYYRQGRIAKMPVKWIAIESLADRVYTSKSDVWAFGVTMWEIATRGMTPYPGVQNHEMYDYLLHGHRLKQPEDCLDELYEIMYSCWRTDPLDRPTFSVLRLQLEKLLESLPDVRNQADVIYVNTQLLESSEGLAQGSTLAPLDLNIDPDSIIASCTPRAAISVVTAEVHDSKPHEGRYILNGGSEEWEDLTSAPSAAVTAEKNSVLPGERLVRNGVSWSHSSMLPLGSSLPDELLFADDSSEGSEVLM", "values": [
      {"measurement": "MBP Kinase Activity", "value": "Strong"}
    ]},
    {"molecule": "MUSK (protein, left off: a dimerising Fc or GST) CCRRRKQWKNKKRESAAVTLTTLPSELLLDRLHPNPMYQRMPLLLNPKLLSLEYPRNNIEYVRDIGEGAFGRVFQARAPGLLPYEPFTMVAVKMLKEEASADMQADFQREAALMAEFDNPNIVKLLGVCAVGKPMCLLFEYMAYGDLNEFLRSMSPHTVCSLSHSDLSMRAQVSSPGPPPLSCAEQLCIARQVAAGMAYLSERKFVHRDLATRNCLVGENMVVKIADFGLSRNIYSADYYKANENDAIPIRWMPPESIFYNRYTTESDVWAYGVVLWEIFSYGLQPYYGMAHEEVIYYVRDGNILSCPENCPVELYNLMRLCWSKLPADRPSFTSIHRILERMCERAEGTVSV", "values": [
      {"measurement": "MBP Kinase Activity", "value": "Negative"}
    ]},
    {"molecule": "MET (protein, left off: small tags and cut ends) KKRKQIKDLGSELVRYDARVHTPHLDRLVSARSVSPTTEMVSNESVDYRATFPEDQFPNSSQNGSCRQVQYPLTDMSPILTSGDSDISSPLLQNTVHIDLSALNPELVQAVQHVVIGPSSLIVHFNEVIGRGHFGCVYHGTLLDNDGKKIHCAVKSLNRITDIGEVSQFLTEGIIMKDFSHPNVLSLLGICLRSEGSPLVVLPYMKHGDLRNFIRNETHNPTVKDLIGFGLQVAKGMKYLASKKFVHRDLAARNCMLDEKFTVKVADFGLARDMYDKEYYSVHNKTGAKLPVKWMALESLQTQKFTTKSDVWSFGVLLWELMTRGAPPYPDVNTFDITVYLLQGRRLLQPEYCPDPLYEVMLKCWHPKAEMRPSFSELVSRISAIFSTFIGEHYVHVNATYVNVKCVAPYPSLLSSEDNADDEVDTRPASFWETS", "values": [
      {"measurement": "MBP Kinase Activity", "value": "Strong"}
    ]}
  ]
}
